B1: library; numbered along this chain (parent)
chain: MAAAAAAAAEQQSSNGPVKKSMREKAVERRSVNKEHNSNFKAGYIPIDEDRLHKTGLRGRKGNLAICVIILLFILAVINLIITLVIWAVIRIGPNGCDSMEFHESGLLRFKQVSDMGVIHPLYKSTVGGRRNENLVITGNNQPIVFQQGTTKLSVENNKTSITSDIGMQFFDPRTQNILFSTDYETHEFHLPSGVKSLNVQKASTERITSNATSDLNIKVDGRAIVRGNEGVFIMGKTIEFHMGGNMELKAENSIILNGSVMVSTTRLPSSSSGDQLGSGDWVRYKLCMCADGTLFKVQVTSQNMGCQISDNPCGNTH

Variants of: B1
Experiment: SGCB cell-surface expression functional score (HA stain, bin4 vs bin1, normalised to synonymous) (log10 ratio); higher = more cell-surface SGCB (functional)
Protocol: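 Deep mutational scan of full-length human SGCB (YFP-SGCB-HA, NNN codon sublibraries A-F) delivered by lentivirus at low MOI into ADG-HEK293 cells stably expressing SGCA, SGCD and SGCG. YFP-positive cells were stained for surface HA on unpermeabilized cells and FACS-sorted into bins. The functional score is log10(frequency in high bin 4 / frequency in low bin 1), normalised per chunk so that synonymous variants have mean 0 and SD 0.5. Scores are the median over codons and over duplicate biological replicates; scores below -0.5 are called non-functional. Scale: negative means deleterious.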

SGCB cell-surface expression functional score (log10) of substitutions, site by site:
A8: W 1.01, Q -0.13, T 0.33, I 0.15, L -0.18, S 0.05, F -0.02, P 0.35, E 0.48, N 0.12, R 0.09, K 0.32, Y 0.51, C 0.27, D 0.14, M -0.04, V 0.43, G 0.3, H 0.25
A9: M 0.67, H 0.18, Q 0.46, T 0.39, E 0.28, L 0.19, W -0.24, F 0.04, I 0.35, D 0.38, K 0.19, S 0.12, V 0.15, P 0.17, R 0.3, Y 0.45, N -0.39, G 0.37, C 0.54
G16: K 0.11, Q 0.97, H 0.08, L -0.08, V 0.38, D 0.57, C -0.06, P 0.37, A -0.31, E 0.38, R 0.04, Y 0.23, T -0.27, I -0.02, S 0.37, F 0.52, N 0.14, M 0.4, W 0.23
V18: H -0.54, D 0.09, E 0.13, F 0, C -0.07, A 0.26, L -0.01, I 0.24, M -0.08, K 0.16, G 0.04
A4: D 0.21, Q -0.48, M 0.19, G 0.26, W -0.07, V -0.06, N -0.48, I 0.3, T 0.36, F -0.21, C 0.4, Y -0.14, H 0.44, S 0.05, R -0.11, L 0.45, E -0.43, P 0.44, K -0.03
E10: F -0.46, Q 0.15, V -0.1, T 0.27, A 0.17, M -0.03, N 0.39, R 0.14, Y 0.17, C 0.47, I 0.41, K 0.18, G 0.28, S 0.03, L 0.02, D 0.45, H 0.08, W -0.16, P 0.05
A3: S -0.23, I -0.02, N 0.29, T 0.17, E 0.2, H 0.3, Y 0.27, D 0.14, V 0.12, W 0.1, K 0.06, L -0.02, F 0.22, P 0.42, G 0.02, M 0.11, Q 0.11, R 0.15, C -0.24
S14: T -0.01, I 0.03, K 0.31, G 0.43, N 0.61, D 0.3, V 0.21, F 0.19, W -0.06, R 0.04, E 0.27, C 0.04, M 0.08, L 0.1, P 0.22, Q 0.46, Y -0.15, A 0.14, H 0.09
A5: R -0.2, V 0.01, G 0.2, T 0.22, L 0.24, K 0.07, I 0.29, E -0.03, N -0.07, F 0.61, H 0.12, S 0.1, Y 0.39, D -0.01, M 0.25, W 0.56, P -0.19, C 0.11, Q 0.33
P17: A 0.2, V -0.13, G -0.18, S 0.12
